Reference: patent US20250026827A1 (Alector, published 2025)
Where a chain is given by its changes, count along the chain named. Read-outs that look alike come from different tables or passages of the source.

Legend:
[1] = biological target: T1, human SIRPβ1 domain 1 (D1) Fc fusion (human, UniProt O00241 30-148); experiment: Octet, Fab monovalent
T1 construct: Made in HEK293/T cells with a heterologous signal peptide; also called Human SIRPβ1 D1-Fc; Human SIRPβ1-Fc; not shown: C-terminal human IgG1 Fc

[2] = biological target: T2, human SIRPα on cells (human, UniProt P78324 31-504); experiment: flow cytometry
T2 construct: Whole entry

[3] = biological target: T3, mouse SIRPβ1 on CHO cells (mouse); experiment: flow cytometry
T3 construct: Whole entry
T3 chain: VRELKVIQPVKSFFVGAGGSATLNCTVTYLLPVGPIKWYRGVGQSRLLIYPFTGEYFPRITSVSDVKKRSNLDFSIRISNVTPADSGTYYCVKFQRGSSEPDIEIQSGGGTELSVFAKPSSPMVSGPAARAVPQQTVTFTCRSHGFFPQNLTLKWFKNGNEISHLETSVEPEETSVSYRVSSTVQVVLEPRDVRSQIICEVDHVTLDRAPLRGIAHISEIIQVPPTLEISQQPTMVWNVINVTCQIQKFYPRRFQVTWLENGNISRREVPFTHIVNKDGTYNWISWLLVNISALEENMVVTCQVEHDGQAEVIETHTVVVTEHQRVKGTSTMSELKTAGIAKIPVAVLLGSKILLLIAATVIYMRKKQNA

[4] = biological target: T4, human SIRPβ1 isoform 1 on cells (human, UniProt O00241 30-398); experiment: flow cytometry
T4 construct: On CHO cells (low level), on BWZ/BW5147.G.1.4 cells (reporter cells co-express human DAP12) or on primary human myeloid cells; also called huSIRPβ1; BWZ-huSIRPβ1

[5] = biological target: T5, human SIRPα domain 1 (D1) Fc fusion (human, UniProt P78324 32-149); experiment: Octet, IgG avid
T5 construct: also called human SIRPα D1-Fc; Human SIRPα Fc; not shown: C-terminal human IgG1 Fc

[6] = biological target: T2, human SIRPα on cells; experiment: flow cytometry; remark: listed apart in the source
[7] = biological target: T3, mouse SIRPβ1 on CHO cells; experiment: flow cytometry
[8] = biological target: T4, human SIRPβ1 isoform 1 on cells; experiment: cell binding titration; target not given
[9] = biological target: T6, Soluble, human SIRPβ1-Fc isoform 1 (O00241) (human, UniProt O00241 30-371, limits assumed); experiment: ELISA, antigen coated
T6 construct: Whole entry named; also called human SIRPβ1 isoform 1
Description: Recombinant antigen based on the sequence of SIRPβ1 isoform 1 was used for selecting anti-SIRPβ1 antibodies from yeast library pools. To ascertain if the selected anti-SIRPβ1 antibodies cross-reacted with other isoforms of human SIRPβ1 or with cynomolgus SIRPβ1, recombinant antigens based on human SIRPβ1 isoform 3 sequence and cynomolgus SIRPβ1 isoform 1 sequence were produced by transient transfection in HEK293 cells. Purified, Fc-tagged recombinant proteins were adsorbed onto 96-well plates at 1 μg/mL overnight at 4° C. Plates were subsequently washed with PBS+0.05% Tween-20 and blocked with 1% BSA+PBS for 2 hours at room temperature. Antibodies diluted in blocking buffer at 1 μg/mL were added to wells, serially diluted, and allowed to bind antigen overnight at 4° C. The following day, the primary antibodies were removed and anti-human kappa light chain antibody conjugated to horseradish peroxidase diluted 1:10,000 in blocking buffer were added to wells and incubated for 1 hour at room temperature. Plates were washed with PBS+0.05% Tween-20 and 100 μL of TMB substrate solution was added to wells to generate a colorimetric signal proportional to amount of anti-SIRPβ1 antibody bound to antigen. Once the reaction reached an appropriate color intensity, 100 μL of Stop solution was added to quench the enzyme.
(§1) Eight anti-SIRPβ1 antibodies (four parental antibodies and four corresponding affinity matured antibodies) were selected for analysis.

[10] = biological target: T1, human SIRPβ1 domain 1 (D1) Fc fusion; experiment: Octet, Fab monovalent; remark: listed apart in the source
[11] = biological target: T7, human SIRPβ1-Fc isoform 3 (Q5TFQ8) (human, UniProt Q5TFQ8 30-371, limits assumed); experiment: ELISA on plate-coated huSirpB-Fc (Q5TFQ8.1), anti-human kappa-HRP, A450
T7 construct: Whole entry named; made in HEK293 cells; also called human SIRPβ1 isoform 3
Protocol: To ascertain if the selected anti-SIRPβ1 antibodies cross-reacted with other isoforms of human SIRPβ1 or with cynomolgus SIRPβ1, recombinant antigens based on human SIRPβ1 isoform 3 sequence and cynomolgus SIRPβ1 isoform 1 sequence were produced by transient transfection in HEK293 cells. Purified, Fc-tagged recombinant proteins were adsorbed onto 96-well plates at 1 μg/mL overnight at 4° C. Plates were subsequently washed with PBS+0.05% Tween-20 and blocked with 1% BSA+PBS for 2 hours at room temperature. Antibodies diluted in blocking buffer at 1 μg/mL were added to wells, serially diluted, and allowed to bind antigen overnight at 4° C. The following day, the primary antibodies were removed and anti-human kappa light chain antibody conjugated to horseradish peroxidase diluted 1:10,000 in blocking buffer were added to wells and incubated for 1 hour at room temperature. Plates were washed with PBS+0.05% Tween-20 and 100 μL of TMB substrate solution was added to wells to generate a colorimetric signal proportional to amount of anti-SIRPβ1 antibody bound to antigen. Once the reaction reached an appropriate color intensity, 100 μL of Stop solution was added to quench the enzyme.
as §1

[12] = biological target: T8, mouse SIRPα on cells (mouse, UniProt P97797 32-513); experiment: flow cytometry;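 as to FOB: antibodies tested at 1 µg/ml for 30 min on ice against receptor-expressing cells, detected with a PE-labelled secondary antibody, read as mean fluorescence intensity relative to background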
T8 construct: whole, on cells
T8 sequence (looked up): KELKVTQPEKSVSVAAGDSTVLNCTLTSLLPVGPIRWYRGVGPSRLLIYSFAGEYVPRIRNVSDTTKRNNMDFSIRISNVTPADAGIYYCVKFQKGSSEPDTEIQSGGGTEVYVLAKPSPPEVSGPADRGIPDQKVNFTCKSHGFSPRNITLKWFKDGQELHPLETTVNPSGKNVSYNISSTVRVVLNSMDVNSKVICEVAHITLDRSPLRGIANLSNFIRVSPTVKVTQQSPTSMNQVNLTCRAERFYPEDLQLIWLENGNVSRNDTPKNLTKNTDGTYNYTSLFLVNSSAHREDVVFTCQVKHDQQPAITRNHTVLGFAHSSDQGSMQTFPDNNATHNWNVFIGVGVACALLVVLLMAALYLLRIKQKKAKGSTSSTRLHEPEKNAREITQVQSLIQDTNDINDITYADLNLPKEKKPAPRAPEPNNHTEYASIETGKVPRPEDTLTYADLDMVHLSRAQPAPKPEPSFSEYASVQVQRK

[13] = biological target: T2, human SIRPα on cells; experiment: flow cytometry; remark: listed apart in the source
[14] = biological target: T3, mouse SIRPβ1 on CHO cells; experiment: flow cytometry
[15] = biological target: T4, human SIRPβ1 isoform 1 on cells; experiment: flow cytometry; remark: listed apart in the source
[16] = biological target: T8, mouse SIRPα on cells; experiment: flow cytometry; remark: listed apart in the source;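 as to FOB: antibodies tested at 1 µg/ml for 30 min on ice against receptor-expressing cells, detected with a PE-labelled secondary antibody, read as mean fluorescence intensity relative to background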
[17] = biological target: T9, mouse SIRPα D1-Fc (mouse, UniProt P97797 32-150, limits assumed); experiment: Octet
T9 construct: domain: D1
T9 sequence (looked up): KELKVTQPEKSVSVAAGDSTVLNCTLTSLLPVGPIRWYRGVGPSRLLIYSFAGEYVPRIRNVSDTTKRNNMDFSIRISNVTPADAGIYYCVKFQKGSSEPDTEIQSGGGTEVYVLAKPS

[18] = biological target: T1, human SIRPβ1 domain 1 (D1) Fc fusion; experiment: Octet, IgG avid
Protocol: Briefly, Octet affinity measurements were performed by loading IgGs on-line onto AHQ sensors. Sensors were equilibrated off-line in assay buffer for 30 min and then monitored on-line for 60 seconds for baseline establishment. For avid binding measurement, sensors with loaded IgGs were exposed to 100 nM antigen (human SIRPα domain 1 (D1) Fc fusion or SIRPβ1 domain 1 (D1) Fc fusion) for 3 min, and then transferred to assay buffer for 3 min for off-rate measurement. Additional avid binding was determined by loading biotinylated SIRPβ1 monomer on SA sensors and exposing to 100 nM IgG in solution. Monovalent binding measurements were obtained by loading human SIRPα- or SIRPβ1-Fc fusion antigens onto AHQ sensor, followed by exposure to 100 nM anti-SIRPβ1 antibody Fab. Additional monovalent measurements were made by loading biotinylated human SIRPα or SIRPβ1 monomer to SA sensor followed by exposure to 100 nM Fab in solution. Kinetics data were fit using a 1:1 binding model in the data analysis software provided by ForteBio (ForteBio Data Analysis Software 7.0).

T6 sequence (O00241 30-371 limits assumed, one chain of several): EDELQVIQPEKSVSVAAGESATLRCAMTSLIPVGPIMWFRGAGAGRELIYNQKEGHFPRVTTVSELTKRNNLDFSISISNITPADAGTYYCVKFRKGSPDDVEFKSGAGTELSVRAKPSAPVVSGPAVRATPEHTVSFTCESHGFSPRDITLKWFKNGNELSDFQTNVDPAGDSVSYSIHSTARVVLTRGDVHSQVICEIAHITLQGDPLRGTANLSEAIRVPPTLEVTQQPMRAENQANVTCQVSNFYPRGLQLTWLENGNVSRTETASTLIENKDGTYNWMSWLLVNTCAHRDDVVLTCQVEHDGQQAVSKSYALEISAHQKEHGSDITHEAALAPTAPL
T4 sequence (O00241 30-398): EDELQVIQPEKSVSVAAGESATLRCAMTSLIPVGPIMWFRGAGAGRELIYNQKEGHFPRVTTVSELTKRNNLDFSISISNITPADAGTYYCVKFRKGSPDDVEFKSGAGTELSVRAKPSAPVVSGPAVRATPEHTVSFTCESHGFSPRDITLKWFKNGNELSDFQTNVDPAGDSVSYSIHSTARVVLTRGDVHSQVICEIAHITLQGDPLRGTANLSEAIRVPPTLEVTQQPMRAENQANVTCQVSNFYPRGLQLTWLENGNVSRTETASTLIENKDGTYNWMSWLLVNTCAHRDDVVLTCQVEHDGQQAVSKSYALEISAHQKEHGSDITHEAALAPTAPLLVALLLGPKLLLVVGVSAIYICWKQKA
T1 sequence (O00241 30-148 limits assumed): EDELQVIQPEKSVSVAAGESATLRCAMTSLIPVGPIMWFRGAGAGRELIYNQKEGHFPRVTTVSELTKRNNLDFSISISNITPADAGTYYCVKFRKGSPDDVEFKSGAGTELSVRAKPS
T7 sequence (Q5TFQ8 30-371 limits assumed, one chain of several): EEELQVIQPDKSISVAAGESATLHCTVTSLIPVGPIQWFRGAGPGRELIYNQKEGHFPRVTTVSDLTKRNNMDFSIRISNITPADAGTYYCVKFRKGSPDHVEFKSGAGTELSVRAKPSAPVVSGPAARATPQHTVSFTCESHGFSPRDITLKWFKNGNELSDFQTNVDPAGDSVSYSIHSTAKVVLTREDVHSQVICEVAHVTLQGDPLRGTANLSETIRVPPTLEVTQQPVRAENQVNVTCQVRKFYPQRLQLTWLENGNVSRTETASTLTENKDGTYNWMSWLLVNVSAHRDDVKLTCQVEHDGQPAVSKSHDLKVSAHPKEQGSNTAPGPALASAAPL

B1: SB-11 Fab (Fab, V domains shown)
VH: QVQLVQSGAEVKKPGSSVKVSCKASGGTFSNYAISWVRQAPGQGLEWMGGIIPIFGTANYAQKFQGRVTITADESTSTAYMELSSLRSEDTAVYYCARPVDSSSYSLGYYYGMDVWGKGTTVTVSS
VL: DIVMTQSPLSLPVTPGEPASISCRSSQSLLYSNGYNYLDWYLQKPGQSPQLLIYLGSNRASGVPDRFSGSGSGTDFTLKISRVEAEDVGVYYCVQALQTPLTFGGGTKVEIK
notes: Fab by papain digestion
In the case of B1, the Kd [1] is reported as 678 nM.

B2: SB-17 Fab (Fab, V domains shown)
VH: QVQLVQSGAEVKKPGASVKVSCKASGYTFTSYGISWVRQAPGQGLEWMGWISAYNGNTNYAQKLQGRVTMTTDTSTSTAYMELRSLRSDDTAVYYCARGPLLYGDYHVRYGMDVWGQGTTVTVSS
VL: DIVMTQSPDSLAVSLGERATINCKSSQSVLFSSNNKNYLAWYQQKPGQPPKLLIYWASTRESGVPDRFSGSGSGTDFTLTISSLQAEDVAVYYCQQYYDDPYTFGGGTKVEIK
notes: Fab by papain digestion
Binder B2 has a Kd [1] of 246 nM.

B3: SB-40-21 (antibody, V domains shown)
VH: QVQLVQSGAEVKKPGASVKVSCKASGYTFTSYYMVWVRQAPGQGLEWMGIINPSSGDTNYAQKFQGRVTMTRDTSISTAYMELSRLRSDDTAVYYCARDTGEYSYSPHGMDVWGQGTTVTVSS
VL: EIVLTQSPATLSLSPGERATLSCRASQSVSSYLAWYQQKPGQAPRLLIYDSSNRATGIPARFSGSGSGTDFTLTISSLEPEDFAVYYCQQRDEHPPWTFGGGTKVEIK
notes: IgG
For B3, the FOB [2] was 1 fold over background, the FOB [3] was 2 fold over background and the FOB [4] was 5 fold over background. B3: no binding (tested: 100 nM) [5]; no binding (tested: 1 ug/ml) [6]; no binding (tested: 1 ug/ml) [7]. For the same binder, the EC50 [8] was 0.715 nM and the EC50 [9] was 0.025 nM.

B4: SB-40 Fab (Fab, V domains shown)
VH: B3 VH with V35S, S55G, D57S, N59S, I76T, A79V, R85S, D89E
VL: B3 VL
notes: Fab by papain digestion
With B4 the Kd [1] was 427 nM and the Kd [10] was 918 nM.

B5: SB-49 Fab (Fab, V domains shown)
VH: QLQLQESGPGLVKPSETLSLTCTVSGGSISSSDYYWGWIRQPPGKGLEWIGSIYYSGSTYYNPSLKSRVTISVDTSKNQFSLKLSSVTAADTAVYYCARGPTGYKDKWRYYYGMDVWGQGTTVTVSS
VL: DIQMTQSPSSLSASVGDRVTITCQASQDITNYLNWYQQKPGKAPKLLIYDASNLETGVPSRFSGSGSGTDFTFTISSLQPEDIATYYCQQYFHPPLTFGGGTKVEIK
notes: Fab by papain digestion
For B5, the Kd [1] was 156 nM.

B6: SB-15 Fab (Fab, V domains shown)
VH: QLQLQESGPGLVKPSETLSLTCTVSGGSISSNSYYWGWIRQPPGKGLEWIGSIYYSGSTYYNPSLKSRVTISVDTSKNQFSLKLSSVTAADTAVYYCAREVGAPPSYPFDIWGQGTMVTVSS
VL: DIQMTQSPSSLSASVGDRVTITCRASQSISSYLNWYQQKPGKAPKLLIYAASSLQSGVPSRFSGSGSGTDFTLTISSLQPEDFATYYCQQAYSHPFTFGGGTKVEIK
notes: Fab by papain digestion
Work on B6 yielded a Kd [1] of 407 nM.

B7: SB-1-2 (antibody, V domains shown)
VH: QVQLVESGGGVVQPGRSLRLSCAASGFTFGSFGMNWVRQAPGKGLEWVSAITASGGSTFYADSVKGRFTISRDNSKNTLYLQMNSLRAEDTAVYYCAKDFTEVVGWLGMDVWGQGTTVTVSS
VL: EIVMTQSPGTLSLSPGERATLSCRASQSVSSSYLAWYQQKPGQAPRLLIYGASSRATGIPDRFSGSGSGTDFTLTISRLEPEDFAVYYCQLLGSSPRTFGGGTKVEIK
notes: IgG
For B7, the FOB [2] was 1 fold over background, the FOB [3] was 1 fold over background and the FOB [4] was 4 fold over background. B7: no binding (tested: 100 nM) [5]; no binding (tested: 1 ug/ml) [6]; no binding (tested: 1 ug/ml) [7]. For the same binder, the EC50 [8] was 0.059 nM, the binding result [11] was “no binding (tested: 1 ug/mL)” and the EC50 [9] was 0.045 nM.

B8: SB-2 Fab (Fab, V domains shown)
VH: QVQLVESGGGVVQPGRSLRLSCAASGFTFSSYGMNWVRQAPGKGLEWVAVIWYDGSNKYYADSVKGRFTISRDNSKNTLYLQMNSLRAEDTAVYYCARDQTAAAAIWGMDVWGQGTTVTVSS
VL: B7 VL with M4L, L91Q, L92S, G93S, S95H, R97F
notes: Fab by papain digestion
With B8 the Kd [1] was 266 nM and the Kd [10] was 977 nM.

B9: SB-1 Fab (Fab, V domains shown)
VH: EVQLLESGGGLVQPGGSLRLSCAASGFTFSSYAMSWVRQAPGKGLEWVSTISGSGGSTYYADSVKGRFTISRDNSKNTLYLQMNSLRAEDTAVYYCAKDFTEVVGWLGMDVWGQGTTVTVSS
VL: B7 VL
notes: Fab by papain digestion
For B9, the Kd [1] was 97.9 nM and the Kd [10] was 172 nM.

B10: SB-6 Fab (Fab, V domains shown)
VH: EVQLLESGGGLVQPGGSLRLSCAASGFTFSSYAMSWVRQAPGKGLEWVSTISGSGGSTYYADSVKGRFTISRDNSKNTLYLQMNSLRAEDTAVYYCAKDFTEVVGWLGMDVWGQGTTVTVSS
VL: B7 VL with M4L, L91Q, L92S, S94H, S95L, R97I
notes: Fab by papain digestion
B10 gave a Kd [1] of 131 nM.

B11: SB-8 (antibody, V domains shown)
VH: QVQLQESGPGLVKPSETLSLTCAVSGYSISSGYYWGWIRQPPGKGLEWIGSIYHSGSTYYNPSLKSRVTISVDTSKNQFSLKLSSVTAADTAVYYCARGGAMTPAGMDVWGQGTTVTVSS
VL: B7 VL with S54N, L91Q, L92V, G93Y, R97Y
notes: IgG; also called SB-8 (p)
B11 showed an FOB [2] of 1 fold over background, an FOB [3] of 2 fold over background and an FOB [4] of 2 fold over background. It also gave an FOB [12] of 1.2 fold over background, an FOB [13] of 2.1 fold over background and an FOB [14] of 1.7 fold over background. The FOB [15] was 4.1 fold over background, the binding result [16] was “no binding (tested: 1 ug/ml)” and the binding result [7] was “no binding (tested: 1 ug/ml)”. The EC50 [8] was 0.441 nM, the binding result [11] was “no binding (tested: 1 ug/mL)” and the EC50 [9] was 0.022 nM. For the same binder, the binding result [17] was “no binding (tested: 100 nM)” and the Kd [18] was 2.72 nM.

B12: SB-8 Fab (Fab, V domains shown)
VH: B11 VH
VL: B7 VL with S54N, L91Q, L92V, G93Y, R97Y
notes: Fab by papain digestion
In the case of B12, the Kd [1] is reported as 126 nM and the Kd [10] is reported as 151 nM.

B13: SB-2-11 (antibody, V domains shown)
VH: QVQLVESGGGLVQPGGSLRLSCAASGFTFARYGMHWVRQAPGKGLEWVSAISGLAGPTYADSVKGRFTISRDNSKNTLYLQMNSLRAEDTAVYYCARDQTAAWGIWGMDVWGQGTTVTVSS
VL: B7 VL with M4L, L91Q, L92S, G93S, S95H, R97F
notes: IgG
Binder B13 has an FOB [2] of 0 fold over background, an FOB [3] of 2 fold over background and an FOB [4] of 6 fold over background. B13: no binding (tested: 100 nM) [5]; no binding (tested: 1 ug/ml) [6]; no binding (tested: 1 ug/ml) [7]. It also gave an EC50 [8] of 0.22 nM.
